# Data: US9555344
# How the values were obtained:
# [1] = target: Concanavalin A (UniProt P02866); assay: Con A Sepharose affinity chromatography (Con A assay); bound albumin as percent of load
# [2] = target: Concanavalin A (UniProt P02866); assay: Con A Sepharose affinity chromatography, 100 mg rHA loaded; albumin monomer in eluate by GP-HPLC as percent of load; sample PBA flow through & washings
# [3] = target: Concanavalin A (UniProt P02866); assay: Con A Sepharose affinity chromatography, 100 mg rHA loaded; albumin monomer in eluate by GP-HPLC as percent of load; sample SP-FF2 flow through & washings
# [4] = target: Concanavalin A (UniProt P02866); assay: Con A Sepharose affinity chromatography, 100 mg rHA loaded; albumin monomer in eluate by GP-HPLC as percent of load; sample final product
Substance,content of Con A binding material [1],ConA-binding rHA (% of load) [2],ConA-binding rHA (% of load) [3],ConA-binding rHA (% of load) [4]
rHA purified from the Pichia pastoris culture medium in accordance with the process of Example 1 (from UniProt P02768 25-609),0.22 % (w/w),,,
rHA used to spike the Pichia culture medium (from UniProt P02768 25-609),0.57 % (w/w),,,
"recombinant human albumin (rHA) from a non-mutant (non-pmt1) Saccharomyces cerevisiae strain, purified by the process of Example 1 (from UniProt P02768 25-609)",,0.55 % of load,0.32 % of load,0.28 % of load
